Assay results as given in patent publication US20170042969A1 (JULIUS MAXIMILIANS UNIVERSIT T W RZBURG, published 2017).
Blank lines part the entries; values can stand above or below the binder they belong to.

Target: ornithine decarboxylase (ODC) present in Xenopus laevis oocytes
Assay: cell-based or functional assay

- IC50 for down-regulation of hSGLT1-mediated AMG uptake in oocytes (intracellular AMG <10 µM): 71 nM
- change of affinity for down-regulation of hSGLT1 when intracellular AMG is raised to 250 µM: 8 fold
B1: hRS1-Reg (regulatory domain of human RS1, amino acids 16-98 of hRS1), wildtype (other, not shown: small tags and cut ends)
chain: SSGQSPDVGNPMSLARSVSASVCPIKPSDSDRIEPKAVKALKASAEFQLNSEKKEHLSLQDLSDHASSADHAPTDQSPAMPMQ

- IC50 for down-regulation of hSGLT1 in oocytes at about 0.25 mM intracellular AMG: 0.0002 nM
- IC50 for inhibition of SGLT1-mediated AMG uptake in oocytes without injection of AMG: 7.9 nM
- IC50 without injection of AMG, against QSP: ~40 times
- increase of affinity at ~0.25 mM intracellular AMG against low intracellular AMG: > 15000 fold
B2: QEP (glutamine-glutamic acid-proline tripeptide) (peptide)
peptide: QEP
